Assay results published in ChEMBL document CHEMBL2074331, “Kinetics of P-glycoprotein-mediated efflux of paclitaxel” (J Pharmacol Exp Ther, 2001).

Test system: CC(=O)O[C@H]1C(=O)[C@@]2(C)[C@H]([C@H](OC(=O)c3ccccc3)[C@]3(O)C[C@H](OC(=O)[C@H](O)[C@@H](NC(=O)c4ccccc4)c4ccccc4)C(C)=C1C3(C)C)[C@]1(OC(C)=O)CO[C@@H]1C[C@@H]2O
Assay: TP_TRANSPORTER: uptake in MDR1-expressing MCF7 cells
Type: functional, cell-based

Q: “ATP-dependent translocase ABCB1 (Homo sapiens)” was tested. Which Km did it give?
A: Its Km is 0.014 µM.
